Reference: article PMC5599542
Blank lines part the entries; values can stand above or below the substance they belong to.

Key:
PTPN11/SHP2 = PTPN11/SHP2 (UniProt Q06124); test: FLAG affinity purification, Western blot; details: reference: wild type; sites Y241,Y263
GRB2 = GRB2 (UniProt P62993); test: FLAG affinity purification, Western blot; details: reference: wild type

binding against the reference (PTPN11/SHP2): lost
Substance: MPZL1 (PZR) (from UniProt O95297) Y241F/Y263F

binding against the reference (GRB2; sites Y263): weaker
Substance: MPZL1 (PZR) (from UniProt O95297) Y263F

binding against the reference (GRB2; sites Y241): weaker
Substance: MPZL1 (PZR) (from UniProt O95297) Y241F
